# Tested on: Escherichia coli TOP10
# Test: shrunken log2 fold change of peptide-encoding DNA abundance (4.5 h post-induction vs induction); higher = less antimicrobial activity (less host growth inhibition)
# Settings: time post-induction: 4.5 h; library: site-saturation at positions 5, 18, 19, 20
# 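Further: peptides expressed intracellularly from a pBAD plasmid library in pooled LB shake-flask culture, induced with 0.3% L-arabinose, DNA abundance read by NGS, three biological replicates, DESeq2 with apeglm shrinkage.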
row,Sequence,shrunken log2 fold change
1,RRIRQRPPRLPRPRPRPDPKPRP,0.0129
2,RRIRKRPPRLPRPRPRPDEFPRP,1.24
3,RRIRHRPPRLPRPRPRPARAPRP,0.345
4,RRIRHRPPRLPRPRPRPIENPRP,-0.143
5,RRIRFRPPRLPRPRPRPSIFPRP,-0.579
6,RRIRWRPPRLPRPRPRPIAEPRP,0.00894
7,RRIRQRPPRLPRPRPRPPENPRP,0.0912
8,RRIRYRPPRLPRPRPRPASIPRP,-0.229
9,RRIRCRPPRLPRPRPRPFDFPRP,-0.342
10,RRIRERPPRLPRPRPRPTCAPRP,-0.162
11,RRIRMRPPRLPRPRPRPFRCPRP,-0.0869
12,RRIRWRPPRLPRPRPRPQNIPRP,-0.882
13,RRIRLRPPRLPRPRPRPIIKPRP,-0.527
14,RRIRARPPRLPRPRPRPNVAPRP,0.477
15,RRIRERPPRLPRPRPRPKDSPRP,-0.212
16,RRIRIRPPRLPRPRPRPQYTPRP,-1.18
17,RRIRARPPRLPRPRPRPFFDPRP,0.107
18,RRIRNRPPRLPRPRPRPATPPRP,0.537
19,RRIRTRPPRLPRPRPRPESGPRP,0.366
20,RRIRWRPPRLPRPRPRPKTWPRP,0.325
21,RRIRNRPPRLPRPRPRPSFQPRP,-0.274
22,RRIRIRPPRLPRPRPRPGLQPRP,0.0696

row,Sequence,shrunken log2 fold change
1,RRIRFRPPRLPRPRPRPFIWPRP,-0.312
2,RRIRDRPPRLPRPRPRPHCFPRP,0.00117
3,RRIRNRPPRLPRPRPRPPHHPRP,-0.11
4,RRIRYRPPRLPRPRPRPFLYPRP,-0.881
5,RRIRFRPPRLPRPRPRPQDLPRP,-0.0337
6,RRIRVRPPRLPRPRPRPDFSPRP,-0.373
7,RRIRVRPPRLPRPRPRPVQMPRP,-0.0712
8,RRIRIRPPRLPRPRPRPAHVPRP,-0.0796
9,RRIRNRPPRLPRPRPRPFPMPRP,-0.0139
10,RRIRLRPPRLPRPRPRPECPPRP,0.0712
11,RRIRARPPRLPRPRPRPHRWPRP,0.0671
12,RRIRMRPPRLPRPRPRPCTQPRP,-0.111
13,RRIRSRPPRLPRPRPRPWEDPRP,-0.0124
14,RRIRNRPPRLPRPRPRPDLQPRP,-0.0156
15,RRIRTRPPRLPRPRPRPDDPPRP,-0.00805
16,RRIRFRPPRLPRPRPRPLKRPRP,-0.227
17,RRIRERPPRLPRPRPRPRMLPRP,-0.0942
18,RRIRNRPPRLPRPRPRPFLRPRP,-0.0221
19,RRIRVRPPRLPRPRPRPKINPRP,-0.18
20,RRIRLRPPRLPRPRPRPDWHPRP,-0.264
21,RRIRVRPPRLPRPRPRPHDCPRP,-0.162
22,RRIRYRPPRLPRPRPRPRSDPRP,-0.113

row,Sequence,shrunken log2 fold change
1,RRIRIRPPRLPRPRPRPPVQPRP,-0.0716
2,RRIRMRPPRLPRPRPRPISHPRP,-0.018
3,RRIRYRPPRLPRPRPRPGYWPRP,-0.154
4,RRIRFRPPRLPRPRPRPTRMPRP,0.762
5,RRIRVRPPRLPRPRPRPDPCPRP,-0.0596
6,RRIRIRPPRLPRPRPRPEKIPRP,-0.0431
7,RRIRNRPPRLPRPRPRPARPPRP,2.86
8,RRIRFRPPRLPRPRPRPSRYPRP,-0.0764
9,RRIRFRPPRLPRPRPRPQHGPRP,-0.126
10,RRIRMRPPRLPRPRPRPETAPRP,4.06
11,RRIRKRPPRLPRPRPRPKVRPRP,0.131
12,RRIRFRPPRLPRPRPRPIVLPRP,-0.196
13,RRIRMRPPRLPRPRPRPWCGPRP,0.134
14,RRIRYRPPRLPRPRPRPGPPPRP,0.277
15,RRIRVRPPRLPRPRPRPGSDPRP,-0.00601
16,RRIRMRPPRLPRPRPRPADIPRP,0.067
17,RRIRVRPPRLPRPRPRPEHQPRP,-0.477
18,RRIRYRPPRLPRPRPRPLRLPRP,0.077
19,RRIRVRPPRLPRPRPRPYWMPRP,-0.227
20,RRIRYRPPRLPRPRPRPKCQPRP,-0.182
21,RRIRIRPPRLPRPRPRPFYYPRP,-0.667
22,RRIRHRPPRLPRPRPRPHKPPRP,0.0188

row,Sequence,shrunken log2 fold change
1,RRIRFRPPRLPRPRPRPCNLPRP,-0.264
2,RRIRCRPPRLPRPRPRPINDPRP,-0.505
3,RRIRDRPPRLPRPRPRPELSPRP,1.55
4,RRIRRRPPRLPRPRPRPFTHPRP,-0.174
5,RRIRQRPPRLPRPRPRPMKHPRP,-0.373
6,RRIRVRPPRLPRPRPRPIMKPRP,-0.473
7,RRIRCRPPRLPRPRPRPYWMPRP,-1.07
8,RRIRYRPPRLPRPRPRPSRPPRP,-0.084
9,RRIRPRPPRLPRPRPRPTKSPRP,0.777
10,RRIRTRPPRLPRPRPRPNRRPRP,0.0696
11,RRIRARPPRLPRPRPRPGEMPRP,0.228
12,RRIRLRPPRLPRPRPRPACGPRP,0.412
13,RRIRHRPPRLPRPRPRPQKNPRP,-0.3
14,RRIRARPPRLPRPRPRPDGGPRP,0.432
15,RRIRNRPPRLPRPRPRPGTHPRP,-0.16
16,RRIRVRPPRLPRPRPRPIGAPRP,0.255
17,RRIRFRPPRLPRPRPRPLMCPRP,-0.328
18,RRIRKRPPRLPRPRPRPHIIPRP,0.0119
19,RRIRVRPPRLPRPRPRPWSRPRP,-0.273
20,RRIRRRPPRLPRPRPRPTQIPRP,-0.0829
21,RRIRARPPRLPRPRPRPECSPRP,1
22,RRIRQRPPRLPRPRPRPPVWPRP,0.223

row,Sequence,shrunken log2 fold change
1,RRIRLRPPRLPRPRPRPEHLPRP,-0.118
2,RRIRFRPPRLPRPRPRPQDSPRP,-0.113
3,RRIRERPPRLPRPRPRPSQMPRP,0.0681
4,RRIRWRPPRLPRPRPRPDTYPRP,-0.161
5,RRIRNRPPRLPRPRPRPLGTPRP,0.135
6,RRIRGRPPRLPRPRPRPADLPRP,0.604
7,RRIRFRPPRLPRPRPRPEGIPRP,0.00745
8,RRIRFRPPRLPRPRPRPGFKPRP,0.122
9,RRIRMRPPRLPRPRPRPSVMPRP,-0.194
10,RRIRDRPPRLPRPRPRPGMKPRP,-0.00884
11,RRIRKRPPRLPRPRPRPPVNPRP,0.04
12,RRIRDRPPRLPRPRPRPHPPPRP,0.402
13,RRIRMRPPRLPRPRPRPQEYPRP,-0.0485
14,RRIRLRPPRLPRPRPRPFRKPRP,0.0823
15,RRIRGRPPRLPRPRPRPMIHPRP,-0.0642
16,RRIRWRPPRLPRPRPRPMKVPRP,0.138
17,RRIRHRPPRLPRPRPRPMDSPRP,-0.00141
18,RRIRTRPPRLPRPRPRPGQQPRP,-0.0603
19,RRIRTRPPRLPRPRPRPHWNPRP,-0.424
20,RRIRRRPPRLPRPRPRPHHWPRP,0.0825
21,RRIRVRPPRLPRPRPRPHGYPRP,-0.298

# From the supplement of paper PMC9112550, “Optimization of the antimicrobial peptide Bac7 by deep mutational scanning” (BMC Biology, 2022)
